Several values for one entry are separate records, joined by “and”; a condition that tells them apart may be missing. Equal entries are not always repeated. Starred links: 1 amine or outer side, 2 acyl side, 3 side chain; linkers in the order of their positions; H or OH if unused. Positions of bridges follow the written chain, without caps; N, C: chain ends. Non-standard residues stand in square brackets, D forms with d. PyrS2 = (S)-3-amino-1-((pent-4-en-1-yloxy)carbonyl)pyrrolidine-3-carboxylic acid, C=CCCCOC(=O)N1CC[C@@](N[*:1])(C(=O)[*:2])C1; B5 = 2-amino-2-(pent-4-en-1-yl)hept-6-enoic acid, C=CCCCC(CCCC=C)(N[*:1])C(=O)[*:2]; Bta = N[C@@H](Cc1csc2ccccc12)C(=O)O; αAllylPro = C=CC[C@@]1(C(=O)O)CCCN1; tBuAla = CC(C)(C)C[C@H](N)C(=O)O; 3Thi = N[C@@H](Cc1ccsc1)C(=O)O
Experiments:
[1] = target: beta-catenin-Halo NanoBRET construct (Homo sapiens (Human)) (UniProt P35222); assay: NanoBRET, Bcat-Halo/TCF4-Luc in HEK293 cells; peptide 20 uM; replicate 2; competitor TCF4-Luc
[2] = target: beta-catenin-Halo NanoBRET construct (Homo sapiens (Human)) (UniProt P35222); assay: NanoBRET, Bcat-Halo/TCF4-Luc in HEK293 cells; peptide 5 uM; replicate 2; competitor TCF4-Luc
[3] = target: beta-catenin-Halo (NanoBRET construct expressed in HEK293 cells) (Homo sapiens (Human)) (UniProt P35222); assay: NanoBRET, HEK293 cells with Bcat-Halo and TCF4-Luc; plate row C (10 uM by plate map), plate column 6
[4] = target: beta-catenin-Halo (NanoBRET construct expressed in HEK293 cells) (Homo sapiens (Human)) (UniProt P35222); assay: NanoBRET, HEK293 cells with Bcat-Halo and TCF4-Luc; plate row F (1.25 uM by plate map), plate column 7
[5] = target: beta-catenin-Halo NanoBRET construct (Homo sapiens (Human)) (UniProt P35222); assay: NanoBRET raw acceptor reading, Bcat-Halo/TCF4-Luc in HEK293 cells; plate row F (1.25 uM by plate map); competitor TCF4-Luc
[6] = target: beta-catenin-Halo NanoBRET construct (Homo sapiens (Human)) (UniProt P35222); assay: NanoBRET, Bcat-Halo/TCF4-Luc in HEK293 cells; peptide 10 uM; replicate 3; competitor TCF4-Luc
[7] = target: beta-catenin-Halo NanoBRET construct (Homo sapiens (Human)) (UniProt P35222); assay: NanoBRET, Bcat-Halo/TCF4-Luc in HEK293 cells; peptide 1.25 uM; replicate 2; competitor TCF4-Luc
[8] = target: beta-catenin-Halo (NanoBRET construct expressed in HEK293 cells) (Homo sapiens (Human)) (UniProt P35222); assay: NanoBRET, HEK293 cells with Bcat-Halo and TCF4-Luc; plate row D (5 uM by plate map), plate column 6
[9] = target: beta-catenin-Halo NanoBRET construct (Homo sapiens (Human)) (UniProt P35222); assay: NanoBRET, Bcat-Halo/TCF4-Luc in HEK293 cells; peptide 0.625 uM; replicate 3; competitor TCF4-Luc
[10] = target: beta-catenin-Halo NanoBRET construct (Homo sapiens (Human)) (UniProt P35222); assay: NanoBRET, Bcat-Halo/TCF4-Luc in HEK293 cells; peptide 2.5 uM; replicate 1; competitor TCF4-Luc
[11] = target: beta-catenin-Halo NanoBRET construct (Homo sapiens (Human)) (UniProt P35222); assay: NanoBRET raw acceptor reading, Bcat-Halo/TCF4-Luc in HEK293 cells; plate row D (5 uM by plate map); competitor TCF4-Luc
[12] = target: beta-catenin-Halo (NanoBRET construct expressed in HEK293 cells) (Homo sapiens (Human)) (UniProt P35222); assay: NanoBRET, HEK293 cells with Bcat-Halo and TCF4-Luc; plate row G (0.625 uM by plate map), plate column 6
[13] = target: beta-catenin-Halo NanoBRET construct (Homo sapiens (Human)) (UniProt P35222); assay: NanoBRET, Bcat-Halo/TCF4-Luc in HEK293 cells; peptide 2.5 uM; replicate 2; competitor TCF4-Luc
[14] = target: beta-catenin-Halo NanoBRET construct (Homo sapiens (Human)) (UniProt P35222); assay: NanoBRET, Bcat-Halo/TCF4-Luc in HEK293 cells; peptide 1.25 uM; replicate 3; competitor TCF4-Luc
[15] = target: beta-catenin-Halo (NanoBRET construct expressed in HEK293 cells) (Homo sapiens (Human)) (UniProt P35222); assay: NanoBRET, HEK293 cells with Bcat-Halo and TCF4-Luc; plate row E (2.5 uM by plate map), plate column 6
[16] = target: beta-catenin-Halo (NanoBRET construct expressed in HEK293 cells) (Homo sapiens (Human)) (UniProt P35222); assay: NanoBRET, HEK293 cells with Bcat-Halo and TCF4-Luc; plate row E (2.5 uM by plate map), plate column 7
[17] = target: beta-catenin-Halo NanoBRET construct (Homo sapiens (Human)) (UniProt P35222); assay: NanoBRET, Bcat-Halo/TCF4-Luc in HEK293 cells; peptide 1.25 uM; replicate 1; competitor TCF4-Luc
[18] = target: beta-catenin-Halo (NanoBRET construct expressed in HEK293 cells) (Homo sapiens (Human)) (UniProt P35222); assay: NanoBRET, HEK293 cells with Bcat-Halo and TCF4-Luc; plate row D (5 uM by plate map), plate column 7
[19] = target: beta-catenin-Halo NanoBRET construct (Homo sapiens (Human)) (UniProt P35222); assay: NanoBRET, Bcat-Halo/TCF4-Luc in HEK293 cells; peptide 10 uM; replicate 2; competitor TCF4-Luc

beta-catenin-Halo (NanoBRET construct expressed in HEK293 cells) (Homo sapiens (Human)), sequence (P35222 whole entry): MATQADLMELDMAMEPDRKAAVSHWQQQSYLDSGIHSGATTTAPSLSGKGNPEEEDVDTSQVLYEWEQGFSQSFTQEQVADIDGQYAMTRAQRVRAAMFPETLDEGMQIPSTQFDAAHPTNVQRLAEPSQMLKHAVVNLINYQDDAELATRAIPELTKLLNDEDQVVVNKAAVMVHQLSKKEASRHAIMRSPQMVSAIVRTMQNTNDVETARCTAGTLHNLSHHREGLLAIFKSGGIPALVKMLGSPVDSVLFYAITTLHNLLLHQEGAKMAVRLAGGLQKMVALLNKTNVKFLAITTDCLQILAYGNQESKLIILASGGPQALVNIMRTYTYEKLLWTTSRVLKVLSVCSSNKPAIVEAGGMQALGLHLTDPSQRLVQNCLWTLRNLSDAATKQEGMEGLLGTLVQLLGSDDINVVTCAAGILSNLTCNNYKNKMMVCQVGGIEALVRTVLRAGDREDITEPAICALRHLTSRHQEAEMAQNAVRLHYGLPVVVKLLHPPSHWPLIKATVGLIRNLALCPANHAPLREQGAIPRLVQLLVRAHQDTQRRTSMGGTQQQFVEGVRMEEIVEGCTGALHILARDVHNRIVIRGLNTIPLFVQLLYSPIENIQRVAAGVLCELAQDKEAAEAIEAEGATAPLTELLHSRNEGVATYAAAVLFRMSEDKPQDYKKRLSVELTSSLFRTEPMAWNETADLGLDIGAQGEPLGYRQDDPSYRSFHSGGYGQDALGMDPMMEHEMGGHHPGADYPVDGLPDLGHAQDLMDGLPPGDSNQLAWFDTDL
beta-catenin-Halo NanoBRET construct (Homo sapiens (Human)), sequence (P35222 whole entry): as above

% Inhibition [1]: -0.3% | % Inhibition [2]: -28.4% | NanoBRET donor emission 450 BP (raw reading) [3]: 25900 | NanoBRET donor emission 450 BP (raw reading) [4]: 71100 | Acceptor 600 LP emission [5]: 300 and 410 and 860 | % Inhibition [6]: 1.7% | % Inhibition [7]: -1.1% | NanoBRET donor emission 450 BP (raw reading) [8]: 29900 | % Inhibition [9]: 8.3% | % Inhibition [10]: -21.3% | Acceptor 600 LP emission [11]: 510 and 420 and 630 | NanoBRET donor emission 450 BP (raw reading) [12]: 35700 | % Inhibition [13]: 26.5% | % Inhibition [14]: -4% | NanoBRET donor emission 450 BP (raw reading) [15]: 22700 | NanoBRET donor emission 450 BP (raw reading) [16]: 40100 | % Inhibition [17]: -24.8% | NanoBRET donor emission 450 BP (raw reading) [18]: 47500 | % Inhibition [19]: -21.9%
Binder: Ac-[αAllylPro]F[tBuAla][B5]DDAADN[PyrS2][3Thi][Bta]Q-NH2 (staple 1-4, 4-11) [I-797]

— patent US20240116985A1, “STAPLED PEPTIDES AND METHODS THEREOF” (priority 2020, published 2024)
